The source of these data is the nanobody polyreactivity screen of Harvey et al. (2022).

This data set can be described thus: yeast display, Sf9 membrane polyspecificity reagent, FACS + sequencing; frameworks hold sequencing errors. The method in brief: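 In a synthetic yeast display library (Saccharomyces cerevisiae BJ5465), nanobody expression was induced with galactose for 36–48 hours. FACS gates were set low and high (top ~1%) using anti-HA fluorescence for expression and streptavidin fluorescence for binding of the Sf9 membrane reagent. Each polyreactivity label is drawn from the gate of origin.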
With “QVQLVESGGGLVQAGGSLSLSCAASGSIFQPYVMGWYRQAPGKEREFVATIRYSGGITYADSVKGRFTISRDNSKNTVYLQMNSLKPVVTAVYYCACYCYCYWGQGTQVNVSS”, the “polyreactivity (PSR sort gate)” value is “low polyreactivity”.

In the case of “QVQLVESVGGLVQAGGSLRLSCAASGFTFGRYAMGWYRQAPGKERELVAAISFSGGRTYYADSVKGRFTISRDNAKNTVYLQMNSLKPEDTAVYYCAARRRQEHVGRSSYARYDYWGQGTQVTVSS”, the “polyreactivity (PSR sort gate)” value is listed as “high polyreactivity”. As for “QVQLVESGGGLVQAGGSLRLSCAASGSIFGVYTMGWYRQAPGKERELVAAITRSGGSTYYADSVKGRFTISRDNAKNTVYLQMNSLKPEDTAVYYCAARRAYVWCSQGYAHFEYWGQGTQVTVSS”, the “polyreactivity (PSR sort gate)” value is “high polyreactivity”. For “QVQLVESGGRLVQAGCSLRLSCAASGFIFRLYAKGWYRQAPGKERELVAAISDDASTNYADSVKGRFTISRDNAKNTVYLQMNSLKPEDTAVYYCAAAVKRGYAQSFISDGYGYWGEGTQVTVSS” the value was “low polyreactivity”; for “QVQHVESGAGLVQAGGSLRLSCAASGLILVYYAMGWYRQAPGKEREFVAAITPGGSTKYADSVKGRFTISRDNAKNTVYLQMNSLKPEDTAVYYCNALSGPYWYSVYQYHQDDYWGQGTQVTVSS”, “low polyreactivity”.

In the case of “QVQLVESGGGLVQAGGSLRLSCAASGRIFTYMGWYRQAPGKERELVAGISWRGTSTYYADSVKGRFTISRDNAKNTVYLQMNSLKPEDTAVYYCAAPWAYHVRGDYWGQGTQVTVSS”, the “polyreactivity (PSR sort gate)” value is listed as “low polyreactivity”. For “QVQLVESGGGLVQAGGSLRLSCAASGFIIYGYVMGWYRQAPGKERELVAAINSSSGRTYYADSVKGRFTISRDNAKNTVYLQMNSLKPEDTAVYYCAAYYYGSYDGTPYDYRGQGTQVTVSS” the value was “low polyreactivity”; for “QVQLVESGGGLVQAGGSIRLSCAASGSTFYIYAMGWYRQAPGQERELVATISWSGGSTYYADSVKGRFTISRDNAKNTVYLQMNSLKPEDTAVYYCAVRPGFGRSLWYGYWGQGTQVTVSS”, “high polyreactivity”. Consider “QVQLVESGGGLVQAGGSLRLSCAASGRIFSSYAMGWYRQAPGKERELVAAISSRGGSTYYADSVKGRFTIARDNAKNTVYLQMNSLKPEDTAVYYCARVKYSGVVYKYDYWGQGTQVTVSS”, for which the “polyreactivity (PSR sort gate)” value is given as “high polyreactivity”.

As to “QVQLVESGGGLVQAGGSLRLSCAASGRTFKENAMGWYRQAPGKERELVAVINSGGRTYYADSVKGRFTISRDNAKNTVYLQMNSLKPEDTAVYYCAAYSRSKESGYWGQGTQVTVSS”, the “polyreactivity (PSR sort gate)” value was “high polyreactivity”. The same measure for “QVQLVESGGGLVQAGGSLRLSCAASGLIFVPYAMGWYIQAPGKERELVAAISRSGGSTYYADSVKGRFTISRDNAKNTVYLQMNSLKPEDTAVYYFATLNYYGEVEYWGQGTQVTVSS”: “high polyreactivity”.

For the sequence “QVQLVESGGGLVQAGGSLRLSCAASGSTFAKNAMGWYRQAPGKERELVAAITYSGGSTYYADSVKGRFTISRDNAKNTVYLQMNSLKPEDTAVYFCASDVWWSDYRYDYWGQGTQVTVSS”, the “polyreactivity (PSR sort gate)” value was “low polyreactivity”. Consider “QVQLVESGGGLVQAGGSLRLSCAASGLIFTVNTMGWYRQAPGKERELVATIHTIGDGTNYADSVKGRFTISRDNAKNTVYLQMNSLKPEDTAVYYCAAYAGSVRPGDLYGYDYWGQGTQVTVSS”, for which the “polyreactivity (PSR sort gate)” value is reported as “low polyreactivity”. With “QVQLVESGGGLVQAGGSLRLSCAASGNIFGKNVMGWYRQAPGKEREFVAAITSRGGRTNYADSVKGRFTISRDNAKNTVYLQMNSLKPEDTAVYYCATRYKSPSFDYWGQGTQVTVSS”, the “polyreactivity (PSR sort gate)” value is on record as “high polyreactivity”. The same measure for “QVQLVESGGGLVQAGGSLRLSCAASGIIFYYYAMGGYRQAPGKEREFVAGIRWSSGSTYYADSVKGRFTISRDNAKNTVYLQMNSLKPEDTAVYYCAADSSGEYPGGYWGQGTQVTVSS”: “low polyreactivity”; for “QVQLVESGGGLVQAGGSLRLSCAASGGTFGYNAMGWYRQAPGKERELVAAISYSGTSTYYADSVKGRFTISRDNAKNTVYLQMNSLKPEVTAVYYCNAGRYIKMGDWGQGSQVTVSS”: “high polyreactivity”.

Turning to “QVQLVESGGGLVQAGGSLRLSCAASGRISPKNAMGWYRQAPGKERELVATIRKIGGRTYYADSVKGRFTISRDNAKNTVYLQMNSLKPEDTAVYYCATDFAPSYYPDRFDYRGQGTQVTVSS”, the “polyreactivity (PSR sort gate)” value is listed as “low polyreactivity”. The same measure for “QVQLVESGGGLVQAGGSLRLSCAASGSTFTYYAMGWYRQAPGKERELVADIDFSGTSTYYADSVKGRFTISRDNAKNTVYLQMNSLKPEDTAVYYCATDDYNWFDYDYWGQGTQVTVSS”: “low polyreactivity”; for “QVQLVESGGGLVQAGGSLRLSCAASGIIFVRYAMGWYRQAPGKERELVAAITWRGSTYYADSVKGRFTISRDNAKNTVYLQMNSLKPEDTAVYYCAAVKPHYTSFRDYYCGQGTQVTVSS”: “high polyreactivity”; for “QVQLVESGGGLVQAGGSLRLSCAASGRTFGYYAMGWYRQAPGKEREFVAAISSRGGSTRYADSVKGRFTISRDNAKNTVYLQMNSLKPEDTAVYYCNKGYYRHPDESDYGGQGTQVTVSS”: “high polyreactivity”. For “QVQLVESAVCLVQAGVSLRLSCAASGIIFDYNAMGWYRQAPGKDREVVAAITSTDNTNYADSVKGRFTISRDNAKNTVYLQMNSLKPEDTAVYYCNTDYWLSVVYAMDYWGQGTQVTVSS”, the “polyreactivity (PSR sort gate)” value was “low polyreactivity”. Turning to “QVQLEESGGGLVQAGGSLRLSCAASGSTFYTNAMGWYRQAPGKERELVAAISASVGSTYYADSVKGRFTISRDNAKNTVYLQMNSLKPEDTAVYYCAADVWASRRYDYWGQGTQVTVSS”, the “polyreactivity (PSR sort gate)” value is on record as “low polyreactivity”.

Take “QVQLVESGGGLVQAGGSLRLSCAASGRTFRLYAMGWYRQAPGKERELVAAISWRGGSTYYADSVKGRFTISRDNAKNTVYLQMNSLKPEDTAVYYCAAGTSRHLSNGYYYWGQGTQVTVSS”: the “polyreactivity (PSR sort gate)” value is reported as “high polyreactivity”. For “QVQLVESGGGLVQAGGSLRLSCAASGNIFDHYAMGWYRQAPGKEREMVAAISSGGSTSYADSVKGRFTITRDNAKTTVYVQMNCLKPEDTAVYYCAAESFVQYKSPKWVHRYDSWGQGTQVTVSS” the value was “low polyreactivity”; for “QVQLVESGGGLVQAGGSLRLSCAASGSTFPWNAMGWYSQAPGKEREMVAAINYGNGSTYYADSVKGRFTISRDNAKNTVYLQMNSLKPEDTAVYYCNADYTGTRTDSVSPEYEYWGQGTQVTVSS”, “low polyreactivity”. For “QVQLVESGGGLVQAGGSLRLSCAASGITFYYYTMGGYRQAPGKERELVAGITRGGRTYYADSVKGRFTISRDNAKNTVYLQMNSLKPEDTAVYYCNADPWWRFDYWGQGTQVTVSS” the value was “low polyreactivity”; for “QFQLVESGGGLVQAGGSLRLSCAASGSIFKRYAMGWYRQAAGKERELVAAISSRGGNTYYADSVKGRFTISRDNAKNTVYLQMNSLKPEDTAVYYCAAYLWKSKRKLDYWGQGTQVTVSS”, “high polyreactivity”. Turning to “QVQLVESGGGLVQAGGSLRLSCAASGFTFKYYAMGWYRQAPGKERELVATITRSGGNTYYADSVKGRFTISRDNAKNTVYLQMNSLKPEDTAVYYCNTRRPGKYDYWGQGTQVTVSS”, the “polyreactivity (PSR sort gate)” value is given as “high polyreactivity”. For “QVQLVESGGGLVQAGGSLRLSCAASGFTFNKNPMGWYRQAPGKEREMVAAITSSGGSTYYADSVQGRFTISRDNAKNTVYLQMNSLKPEDTAVYYCAAYPQAFMADYEYWGQGTQVTVSS”, the “polyreactivity (PSR sort gate)” value is “low polyreactivity”. The same measure for “QVQLVESGGGLVQAGGSLRVSCAASGSIFRFNVMGWYRQAPGKERELVAAITRGDSTNYADSVKGRFTISRDNAKNTVYLQMNSLKPEDTAVYYCAAGYYYYLRDHDYWGQGTQVTVSS”: “low polyreactivity”. For “QVQLVESWGGLVQAGGSLRLSCAASGRIFWKYTMGWYRQAPGKERELVAAIRSGGGSTDYADSVKGRFTISRDNAKNSVYLQMNRLIPEDTAGYYCAAEPSQRYPLSGYVYWGQGTQVTVSS” the value was “low polyreactivity”; for “QVQLVESGAGLVQAGGSLRLSCASSGFILTGYTMGWYRQAPGKERELVAAISWSGARTYYADSVKGRFTISRDNAKNTVYLQMNSLKPEDTAVYYCARDYYRPTQRYDYWGQGTQVTVSS”, “high polyreactivity”. For “QVQLVESGGGLVQAGGSLRLSCAASGRTFYVNTMGWYRQAPGKERELVAAITSRGGRTHYADSVKGRFTISRDNAKNNVYLQMNSLKPEDTAVYYCAAKITAYWRYISDYGYWGQGTQVTVSS” the value was “high polyreactivity”.

Regarding “QVQLVESGGGLVHAGGSLRLSCAASGFTFSYYAMVWYREAPGKEREFVAAISRSGGSTYYADSVKGRFTISRDNAKNTVYLQMNSLYPVDTAVYYCATELSYRHGYWGQGTQVSVSS”, the “polyreactivity (PSR sort gate)” value is on record as “high polyreactivity”. The same measure for “QVQLVESAGGLVQAGGSVRLSCAASGRIFGSYAMGWYRQAAGKERELVAAINWRGGSTFYADSVKGRFTISRDNAKNTVYLQMNSLKPEDTAVYYSARRGYLQSGDYWGHGTQVTVSS”: “low polyreactivity”; for “QVQLEESGGRLVQAGGSLRLTSAASGGIFSVYAMGWYRQAPGKERQLVASITVSGGSTSYADSVKGRFTISRDNAKNTVYLQMKSLKPEDTAVYYCAVYQYVGYTMDYWGQGTKVTVSS”: “low polyreactivity”; for “QVQLVESGGGLVQAGGSLRLSCAASGSTFYTNAMGWYRQAPGQERELVAAISASVGSTYYADSVKGRFTISRDYAKNSVYLQMNSLKPEDTAVYYCAADVWASRRYDYWGQGTQVTVSS”: “low polyreactivity”.

On to “QVQLVESGGGFVQAGGSLRLSCAASGRIFKQYGIGWYRQAPGKERELVAAIRSGDSTNYADSVKGRFTISRDNAKNTVYLQMNSLKPEDTAVYYCARDRPGDYAGYDYWGQGTQVTVSS”, for which the “polyreactivity (PSR sort gate)” value is recorded as “low polyreactivity”. For “QVQLVESGGGLVQAGGSLRVSCAASGRTFARYAKGWYRQAPGKERELVAVISRTGSTYYADSVKGRFTISRDNAKNTVYLQMNSLKPEDTAVYYCATVYYYLAYGWSYSDMDYWGQGTQVTVSS” the value was “high polyreactivity”. The same measure for “QVQLVESGGGLVQAGGSLRLSCAASGIIFLKYAMGWYRQAPGKERELVAGISVRGGRTYYADSVKGRFTISRDNAKNTVYLQMNSLKPEDTAVYYCAKERSRYYPYDYWGQGTQVTVSS”: “high polyreactivity”; for “QVQLVESGGGLVQAGGSLRLSCAASGSTFYSNAMGWYRQAPGKERELVAAITDGDRTNYADSVKGRFTISRDNAKNTVYLQMNSLKPEDTAVYYCAADYAVYLGVSPDYGYWGQGTQVTVSS”: “low polyreactivity”.
